Starred links: 1 amine or outer side, 2 acyl side, 3 side chain; linkers in the order of their positions; H or OH if unused. Positions of bridges follow the written chain, without caps; N, C: chain ends. Non-standard residues stand in square brackets, D forms with d. Primed or numbered codes have the meaning given here. PyrS2″ = (S)-3-amino-1-((pent-4-en-1-yloxy)carbonyl)pyrrolidine-3-carboxylic acid (stapling residue), C=CCCCOC(=O)N1CC[C@@](N[*:1])(C(=O)[*:2])C1; SeN″ = (S)-5-(((allyloxy)carbonyl)(methyl)amino)-2-amino-2-methylpentanoic acid (stapling residue), C=CCOC(=O)N(C)CCC[C@](C)(N[*:1])C(=O)[*:2]; B5(16) = 2-amino-2-(pent-4-en-1-yl)hept-6-enoic acid = 2,2-bis(4-pentenyl)glycine (stitching residue), C=CCCCC(CCCC=C)(N[*:1])C(=O)[*:2]; B5(23) = 2-amino-2-(pent-4-en-1-yl)hept-6-enoic acid (2,2-bis(4-pentenyl)glycine), stitching residue, C=CCCCC(CCCC=C)(N[*:1])C(=O)[*:2]; TfeGA = (S)-2-amino-3-((carboxymethyl)(2,2,2-trifluoroethyl)amino)propanoic acid, O=C([C@H](CN(CC(=O)[*:3])CC(F)(F)F)N[*:1])[*:2]; B5(3) = 2,2-bis(4-pentenyl)glycine (stitching residue), C=CCCCC(CCCC=C)(N[*:1])C(=O)[*:2]; Asp(OEt)″ = aspartic acid side-chain ethyl ester, CCOC(=O)C[C@H](N[*:1])C(=O)[*:2]; Phe(3-COOH) = N[C@@H](Cc1cccc(C(=O)O)c1)C(=O)O; Phe(3-F) = N[C@@H](Cc1cccc(F)c1)C(=O)O; His(τ-Me) = Cn1cnc(C[C@H](N)C(=O)O)c1; Bta = N[C@@H](Cc1csc2ccccc12)C(=O)O; Lys(iPr) = CC(C)NCCCC[C@H](N)C(=O)O; αAllylPro = C=CC[C@@]1(C(=O)O)CCCN1; tBuAla = CC(C)(C)C[C@H](N)C(=O)O; 3Thi = N[C@@H](Cc1ccsc1)C(=O)O; Cha = N[C@@H](CC1CCCCC1)C(=O)O; S8 = C=CCCCCCC[C@](C)(N)C(=O)O; hSer = N[C@@H](CCO)C(=O)O; Aib = CC(C)(N)C(=O)O
T1: full-length beta-Catenin (Uniprot ID P35222) (Homo sapiens (Human), UniProt P35222 2-781)
T1 construct: also called bCat; B-Catenin
T1 sequence: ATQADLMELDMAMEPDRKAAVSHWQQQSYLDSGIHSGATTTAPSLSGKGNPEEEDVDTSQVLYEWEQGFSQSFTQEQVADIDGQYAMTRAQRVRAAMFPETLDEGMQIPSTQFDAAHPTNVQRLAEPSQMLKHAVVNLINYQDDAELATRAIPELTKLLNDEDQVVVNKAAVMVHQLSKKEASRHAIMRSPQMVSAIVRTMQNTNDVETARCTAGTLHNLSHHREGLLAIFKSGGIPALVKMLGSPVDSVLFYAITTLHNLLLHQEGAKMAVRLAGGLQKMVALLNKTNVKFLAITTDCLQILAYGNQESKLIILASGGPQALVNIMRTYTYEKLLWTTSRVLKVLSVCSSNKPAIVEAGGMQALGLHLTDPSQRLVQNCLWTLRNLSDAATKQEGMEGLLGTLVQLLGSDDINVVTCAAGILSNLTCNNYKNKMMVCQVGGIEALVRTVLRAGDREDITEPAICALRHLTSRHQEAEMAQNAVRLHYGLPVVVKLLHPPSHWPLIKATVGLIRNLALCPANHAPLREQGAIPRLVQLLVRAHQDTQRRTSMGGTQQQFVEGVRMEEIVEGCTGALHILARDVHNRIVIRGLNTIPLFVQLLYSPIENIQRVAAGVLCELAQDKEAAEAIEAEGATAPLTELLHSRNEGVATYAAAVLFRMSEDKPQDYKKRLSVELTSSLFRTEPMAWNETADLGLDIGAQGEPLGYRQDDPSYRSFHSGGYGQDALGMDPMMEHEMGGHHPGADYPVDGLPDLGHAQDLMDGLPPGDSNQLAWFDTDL

T2: B-cat-Halo (beta-catenin HaloTag fusion expressed in HEK293 cells) (UniProt P35222 1-781, HaloTag NanoBRET 618 Ligand bound to the HaloTag)
T2 sequence (looked up): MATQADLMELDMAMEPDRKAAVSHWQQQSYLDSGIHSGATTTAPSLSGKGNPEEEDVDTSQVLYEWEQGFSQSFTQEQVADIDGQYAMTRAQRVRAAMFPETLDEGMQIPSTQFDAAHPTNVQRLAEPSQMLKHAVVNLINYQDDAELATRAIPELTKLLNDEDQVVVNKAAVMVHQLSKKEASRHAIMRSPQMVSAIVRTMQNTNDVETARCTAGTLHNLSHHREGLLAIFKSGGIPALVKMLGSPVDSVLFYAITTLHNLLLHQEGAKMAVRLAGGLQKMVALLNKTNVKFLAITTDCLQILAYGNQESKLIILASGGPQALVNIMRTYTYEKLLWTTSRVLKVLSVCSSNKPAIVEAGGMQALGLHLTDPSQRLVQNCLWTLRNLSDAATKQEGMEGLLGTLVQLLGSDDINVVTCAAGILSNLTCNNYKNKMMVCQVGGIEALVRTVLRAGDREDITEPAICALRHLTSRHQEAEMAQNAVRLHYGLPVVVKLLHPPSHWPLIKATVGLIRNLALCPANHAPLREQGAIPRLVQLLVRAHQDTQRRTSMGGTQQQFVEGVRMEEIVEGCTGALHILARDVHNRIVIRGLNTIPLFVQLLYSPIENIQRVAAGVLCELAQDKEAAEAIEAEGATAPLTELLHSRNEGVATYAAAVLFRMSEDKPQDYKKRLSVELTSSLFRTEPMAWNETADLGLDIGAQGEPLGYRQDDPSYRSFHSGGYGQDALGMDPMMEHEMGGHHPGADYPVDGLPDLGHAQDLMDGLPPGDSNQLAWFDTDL


Biological target: T1, full-length beta-Catenin (Uniprot ID …)
Experiment: fluorescence polarization competition; 10 nM full-length beta-catenin + 10 nM 5FAM-TCF4(10-53) probe, peptide titrated
Description: The plate was incubated protected from light for 60 minutes at 20° C. prior to read. Reads were performed on a CLARIOstar plate reader (BMG Labtech) in duplicate, and data were fitted to a 1:1 binding model with hill slope using an in-house script. All provided concentrations are final concentrations.

Row | EC50 | Binder
1 | 0.094 µM | Ac-[αAllylPro]DA[B5(23)]DEAAFQ[S8]F[Bta]Q-NH2 (staple 1-4, 4-11, Stapled (stitched) peptide) [I-406]
2 | 2.16 µM | Ac-[αAllylPro]DA[B5(16)]DHAAFV[SeN″][Phe(3-F)][Bta]Q-NH2 (staple 1-4, 4-11; not fully specified; printed as Ac-PL3-Asp-Ala-B5-Asp-His-Ala-Ala-Phe-Val-SeN-3FF-BztA-Gln-NH2, Stapled (stitched) peptide) [I-398]
3 | 3.59 µM | Ac-[αAllylPro]DA[B5(16)]DHAAFQ[SeN″][Phe(3-F)][Bta]Q-NH2 (staple 1-4, 4-11; not fully specified; printed as Ac-PL3-Asp-Ala-B5-Asp-His-Ala-Ala-Phe-Gln-SeN-3FF-BztA-Gln-NH2, Stapled (stitched) peptide) [I-400]
4 | 2.23 µM | XDAXDHAAFVXFXQ (not fully specified; as printed: Ac-PL3-Asp-Ala-B5-Asp-His-Ala-Ala-Phe-Val-S8-3FF-BztA-Gln-NH2; N-terminal acetyl, C-terminal amide; staples PL3(1)-B5(4) and B5(4)-S8(11) by olefin metathesis, Stapled (stitched) peptide) [I-397]
5 | 0.128 µM | Ac-[αAllylPro]DA[B5(23)]DEAAFT[S8]F[Bta]H-NH2 (staple 1-4, 4-11, Stapled (stitched) peptide) [I-420]
6 | 2.5 µM | XDAXDHAAFQXFXQ (not fully specified; as printed: Ac-PL3-Asp-Ala-B5-Asp-His-Ala-Ala-Phe-Gln-S8-3FF-BztA-Gln-NH2; N-terminal acetyl, C-terminal amide; staples PL3(1)-B5(4) and B5(4)-S8(11) by olefin metathesis, Stapled (stitched) peptide) [I-399]
7 | 0.05 µM | Ac-[αAllylPro]DV[B5(23)]DEAAFQ[S8]F[Bta]Q-NH2 (staple 1-4, 4-11, Stapled (stitched) peptide) [I-410]
8 | 0.105 µM | Ac-[αAllylPro]DA[B5(23)]DEAAFT[S8]F[Bta]Q-NH2 (staple 1-4, 4-11, Stapled (stitched) peptide) [I-423]
9 | 2.13 µM | Ac-[αAllylPro]DA[B5(23)]D[His(τ-Me)]AAFV[S8][Phe(3-F)][Bta]Q-NH2 (staple 1-4, 4-11, Stapled (stitched) peptide) [I-403]

Biological target: T2, B-cat-Halo (beta-catenin HaloTag fusion …)
Experiment: cell-based or functional assay

Row | NanoBRET Abs IC50 | Binder
10 | > 20 µM | Ac-[αAllylPro]D[tBuAla][B5(3)]NT[Aib]AFN[PyrS2″][3Thi][Bta]Q-NH2 (staple 1-4, 4-11) [I-2338]
11 | > 20 µM | Ac-[αAllylPro]N[Cha][B5(3)]DQ[hSer]AFL[PyrS2″]F[Bta]Q-NH2 (staple 1-4, 4-11; also: earlier eluting isomer, configuration not given here) [I-2354]
12 | > 20 µM | Ac-[αAllylPro]N[Cha][B5(3)]DQ[Lys(iPr)]AFL[PyrS2″]F[Bta]K-NH2 (staple 1-4, 4-11) [I-2350]
13 | 52.2 µM | Ac-[αAllylPro]D[tBuAla][B5(3)]D[Asp(OEt)″]AAFL[PyrS2″][3Thi][Bta]Q-NH2 (staple 1-4, 4-11) [I-2358]
14 | > 20 µM | Ac-[αAllylPro]D[tBuAla][B5(3)][Asp(OEt)″]DAAFL[PyrS2″][3Thi][Bta]Q-NH2 (staple 1-4, 4-11) [I-2357]
15 | > 20 µM | Ac-[αAllylPro]N[Cha][B5(3)]D[TfeGA][Lys(iPr)]AFL[PyrS2″]F[Bta]Q-NH2 (staple 1-4, 4-11) [I-2341]
16 | 14.4 µM | Ac-[αAllylPro]D[tBuAla][B5(3)]N[Phe(3-COOH)]AAFT[PyrS2″][3Thi][Bta]Q-NH2 (staple 1-4, 4-11) [I-2336]
17 | > 20 µM | Ac-[αAllylPro]N[Cha][B5(3)]D[Phe(3-COOH)][Lys(iPr)]AFL[PyrS2″]F[Bta]Q-NH2 (staple 1-4, 4-11) [I-2340]

From patent US20240116985A1 (published 2024)
